Results from the MegaScale stability set (Tsuboyama et al. 2023).

B1: HHH_rd2_0155 (parent)
chain: PPDDERKKAEKAARSGNEEKAREILERLGYSEDEARELAKRLR

Variants of: B1
Assay: folding stability dG (cDNA display proteolysis); higher = more stable
Settings: PBS, room temperature

Variant	folding stability dG
PPDDERKKAEKAARSGNEEKAREILERLGYSEDEARELPKRLR [A39P]	-0.361 kcal/mol
PPDDERKKAEKAARSGNEEKAREILERLGYSEDEARELLKRLR [A39L]	2.36 kcal/mol
PPDDERKKAEKAARSGNEEKAREILERLGYSEDEARELQKRLR [A39Q]	0.366 kcal/mol
PPDDERKKAEKAARSGNEEKAREILERLGYSEDEARELYKRLR [A39Y]	1.66 kcal/mol
PPDDERKKAEKAARSGNEEKAREILERLGYSEDEARELKKRLR [A39K]	0.184 kcal/mol
PPDDERKKAEKAARSGNEEKAREILERLGYSEDEARELAFRLR [K40F]	1.8 kcal/mol
PPDDERKKAEKAARSGNEEKAREILERLGYSEDEARELAVRLR [K40V]	1.43 kcal/mol
PPDDERKKAEKAARSGNEEKAREILERLGYSEDEARELAIRLR [K40I]	1.61 kcal/mol
PPDDERKKAEKAARSGNEEKAREILERLGYSEDEARELAERLR [K40E]	1.76 kcal/mol
PPDDERKKAEKAARSGNEEKAREILERLGYSEDEARELALRLR [K40L]	1.81 kcal/mol
PPDDERKKAEKAARSGNEEKAREILERLGYSEDEARELAMRLR [K40M]	2.22 kcal/mol
PPDDERKKAEKAARSGNEEKAREILERLGYSEDEARELAPRLR [K40P]	0.1 kcal/mol
PPDDERKKAEKAARSGNEEKAREILERLGYSEDEARELAWRLR [K40W]	2.08 kcal/mol
PPDDERKKAEKAARSGNEEKAREILERLGYSEDEARELARRLR [K40R]	2.52 kcal/mol
PPDDERKKAEKAARSGNEEKAREILERLGYSEDEARELAGRLR [K40G]	1.44 kcal/mol
PPDDERKKAEKAARSGNEEKAREILERLGYSEDEARELANRLR [K40N]	1.79 kcal/mol
PPDDERKKAEKAARSGNEEKAREILERLGYSEDEARELASRLR [K40S]	1.97 kcal/mol
PPDDERKKAEKAARSGNEEKAREILERLGYSEDEARELATRLR [K40T]	1.63 kcal/mol
PPDDERKKAEKAARSGNEEKAREILERLGYSEDEARELADRLR [K40D]	1.31 kcal/mol
PPDDERKKAEKAARSGNEEKAREILERLGYSEDEARELAARLR [K40A]	2.06 kcal/mol

Variant	folding stability dG
PPDDERKKAEKAARSGNEEKAREILERLGYSEDEARELAHRLR [K40H]	2.39 kcal/mol
PPDDERKKAEKAARSGNEEKAREILERLGYSEDEARELAQRLR [K40Q]	1.84 kcal/mol
PPDDERKKAEKAARSGNEEKAREILERLGYSEDEARELAYRLR [K40Y]	1.98 kcal/mol
PPDDERKKAEKAARSGNEEKAREILERLGYSEDEARELAKYLR [R41Y]	1.73 kcal/mol
PPDDERKKAEKAARSGNEEKAREILERLGYSEDEARELAKWLR [R41W]	1.85 kcal/mol
PPDDERKKAEKAARSGNEEKAREILERLGYSEDEARELAKFLR [R41F]	1.91 kcal/mol
PPDDERKKAEKAARSGNEEKAREILERLGYSEDEARELAKELR [R41E]	1.05 kcal/mol
PPDDERKKAEKAARSGNEEKAREILERLGYSEDEARELAKKLR [R41K]	1.98 kcal/mol
PPDDERKKAEKAARSGNEEKAREILERLGYSEDEARELAKTLR [R41T]	1.37 kcal/mol
PPDDERKKAEKAARSGNEEKAREILERLGYSEDEARELAKVLR [R41V]	1.35 kcal/mol
PPDDERKKAEKAARSGNEEKAREILERLGYSEDEARELAKGLR [R41G]	0.69 kcal/mol
PPDDERKKAEKAARSGNEEKAREILERLGYSEDEARELAKMLR [R41M]	1.86 kcal/mol
PPDDERKKAEKAARSGNEEKAREILERLGYSEDEARELAKCLR [R41C]	1.92 kcal/mol
PPDDERKKAEKAARSGNEEKAREILERLGYSEDEARELAKLLR [R41L]	2.04 kcal/mol
PPDDERKKAEKAARSGNEEKAREILERLGYSEDEARELAKHLR [R41H]	1.66 kcal/mol
PPDDERKKAEKAARSGNEEKAREILERLGYSEDEARELAKDLR [R41D]	0.97 kcal/mol
PPDDERKKAEKAARSGNEEKAREILERLGYSEDEARELAKQLR [R41Q]	1.78 kcal/mol
PPDDERKKAEKAARSGNEEKAREILERLGYSEDEARELAKNLR [R41N]	1.39 kcal/mol
PPDDERKKAEKAARSGNEEKAREILERLGYSEDEARELAKILR [R41I]	1.6 kcal/mol
PPDDERKKAEKAARSGNEEKAREILERLGYSEDEARELAKSLR [R41S]	1.43 kcal/mol

Variant	folding stability dG
PPDDERKKAEKAARSGNEEKAREILERLGYSEDEARELAKALR [R41A]	1.56 kcal/mol
PPDDERKKAEKAARSGNEEKAREILERLGYSEDEARELAKRLN [R43N]	1.44 kcal/mol
PPDDERKKAEKAARSGNEEKAREILERLGYSEDEARELAKRLD [R43D]	0.613 kcal/mol
PPDDERKKAEKAARSGNEEKAREILERLGYSEDEARELAKRLG [R43G]	1.48 kcal/mol
PPDDERKKAEKAARSGNEEKAREILERLGYSEDEARELAKRLS [R43S]	1.85 kcal/mol
PPDDERKKAEKAARSGNEEKAREILERLGYSEDEARELAKRLT [R43T]	1.5 kcal/mol
PPDDERKKAEKAARSGNEEKAREILERLGYSEDEARELAKRLA [R43A]	2.29 kcal/mol
PPDDERKKAEKAARSGNEEKAREILERLGYSEDEARELAKRLV [R43V]	1.77 kcal/mol
PPDDERKKAEKAARSGNEEKAREILERLGYSEDEARELAKRLW [R43W]	2.31 kcal/mol
PPDDERKKAEKAARSGNEEKAREILERLGYSEDEARELAKRLL [R43L]	1.87 kcal/mol
PPDDERKKAEKAARSGNEEKAREILERLGYSEDEARELAKRLQ [R43Q]	1.45 kcal/mol
PPDDERKKAEKAARSGNEEKAREILERLGYSEDEARELAKRLY [R43Y]	2.39 kcal/mol
PPDDERKKAEKAARSGNEEKAREILERLGYSEDEARELAKRLK [R43K]	1.79 kcal/mol
PPDDERKKAEKAARSGNEEKAREILERLGYSEDEARELAKRLP [R43P]	0.532 kcal/mol
PPDDERKKAEKAARSGNEEKAREILERLGYSEDEARELAKRLE [R43E]	0.924 kcal/mol
PPDDERKKAEKAARSGNEEKAREILERLGYSEDEARELAKRLM [R43M]	2.09 kcal/mol
PPDDERKKAEKAARSGNEEKAREILERLGYSEDEARELAKRLF [R43F]	2.48 kcal/mol
PPDDERKKAEKAARSGNEEKAREILERLGYSEDEARELAKRLH [R43H]	1.91 kcal/mol
PPDDERKKAEKAARSGNEEKAREILERLGYSEDEARELAKRLI [R43I]	1.55 kcal/mol
